Source: the DeepSol protein solubility set

Test: soluble on expression in E. coli; label from the status in PepcDB or PDB records

Row | Sequence | soluble on expression in E. coli
1 | MSAQKPGLHPRNRHQHRYDLAALCQTTPELTSFLIRTPAGEQSVDFANPQAVKALNKALLAHFYAVTHWDIPPGFLCPPVPGRADYIHHLADLLGETTGSIPAQATILDVGVGANCIYPLIGVHEYGWRFTGSEVSDAAMSSAQAIIQANTGLSRAIRLRRQKDPAAIFTGIIHKNEFYDATLCNPPFHDSAAAARAGSERKRRNLGQNKDDALNFGGQQQELWCEGGEVAFIKKMIAESQSFRRQVLWFTTLVSRGENLPPLYRALTEAGAVKVVKKEMAQGQKQSRFIAWTFMDDDQRRRFITRKR | not soluble
2 | MQDKCMMRPLSNPLTEAYNVQNLYQCLNCDDYHLCNGSLNCDPLVDREGIVCTVTGKYIQCNVRELEHHHHHH | not soluble
3 | MAQHVKFHQYFFQWMQLYKLDAVRPVTYRKYEMSHRQLVTLAPDLKMADLSRLTYQQLLNDYAETHERQTTMDFHRHLKGSLIDALEEGFIDRDPTRKAIIKGIKHRQHKLEHHHHHH | soluble
4 | MTPLSSPLSQYWQTVVERLPEGFTETSLSAQAKSVLTFSDFALDSVIAHPEWLAELESASPQADEWRHYAGWLQEALAGVCDDASLMRELRLFRRRIMVRIAWAQTLSLVDDETILQQLSHLAETLIVGARDWLYAACCREWGTPCNPQGVPQPLLILGMGKLGGGELNFSSDIDLIFAWPEHGETRGGRRELDNAQFFTRLGQRLIKALDQPTMDGFVYRVDMRLRPFGDSGPLVLSFAALEDYYQEQGRDWERYAMVKARLMGDNDDAWSRELRAMLRPFVFRRYIDFSVIQSLRNMKGMIAREVRRRGLKDNIKLGAGGIREIEFIVQVFQLIRGGREPSLQSRSLLPTLDAIAALHLLPENDVAQLRVAYLFLRRLENLLQSINDEQTQTLPADDLNRARLAWGMKAENWPQLVGELTDHMANVRRVFNELIGDDEADTPQEEERSEPWREVWQDALQEDDSTPVLAHLADEDRRQVLTLIADFRKELDKRPIGPRGRQVLDQLMPHLLADVCSREDAAVTLSRITPLLAGIVTRTTYLELLSEFPGALKHLIMLCAASPMIASQLARYPLLLDELLDPGTLYQPTATDAYRDELRQYLLRVPEEDEEQQLEALRQFKQAQLLRIAAADIAGTLPVMKVSDHLTWLAEAMIDAVVQQAWTQMVARYGQPAHLDERQGRGFAVVGYGKLGGWELGYSSDLDLIFLHDCPMDVMTNGEREIDGRQFYLRLAQRIMHLFSTRTSSGILYEVDARLRPSGAAGMLVTSADAFADYQQHEAWTWEHQALVRARVVYGDPQLTSQFDAVRRTIMTTARDGKTLQTEVREMREKMRAHLGNKHRDRFDIKADEGGITDIEFIAQYLVLRYAHEKPKLTRWSDNVRILELLAQNGIMDEHEAQALTVAYTTLRDELHHLALQELPGHVAQTCFSKERALVQASWRKWLVAV | soluble
5 | MTMTLVNKNRKSRDENAMAKYNEKELADTSKFLSFVLRHKPEAIGIVLDREGWADINKLILCAQKAGKRLTRALLDTVVATSDKKRFSYSSDGRCIRAVQGHSTSQVAISFAEKTPPQFLYHGTASRFLDEIKKQGLIAGDRHYVHLSADEATARKVGARHGSPVVLTVKAQEMAKRGIPFWQAENGVWLTSTVAVEFLEWSFMPTGVQKQLEHHHHHH | soluble
6 | QLAAIDAFDRLTALMTSHFDIDVAFVGLMDEHEERFVACEGANWRTLAREDTICTHTILSDETMVVEDTHEDPRFAEVDALKRLNIRSYAGGRITDREGNAIGAVCCTDGEPRRYTQTERDDLQRFADEVEEQLLLRRRLQGDR | not soluble
7 | MGSDKIHHHHHHVAPPTKGGLAEAENKMENKMTEQQGYWIGEAGKPWGEAEKAKWRAAQQKKRSYEQEVLSKFSQVSESFEAQQYGELNYAEGQYPLYGFKSRDWDQEKPTILVTGGVHGYETSGVQGALRFLIAKAAEYSQDFNILVAPCVSPWGYETINRWNPEAIDPNRSFYADSPAQESRALMQWVASFNLPLMAHIDLHETTDTDNSEFRPALAARDAKVQTNWNIPDGFYLVGDSENPNDEMQAAIIAAVGKVTHIAPADEQGRLIGEPITQFGVINYATKALGLCSGFSDARYNTTTEVYPDSPLVDDENCIQAQVMAVSSALDYIRSQG | not soluble
8 | MTVFSGVNKIEFEGTFEGIGKDVVMSQMIRALQKHFPSIRDKNYEFSLFLHIFQRYVLENTSITHDLVCDKIRLPIIDEVVELDDIKNYGLLEGKLLSKLAILKLTGKANPIIGKESPLFEVKNGMSSLDVIVRQTQNLNVRYNSDVPLIFMTSLETESQVSNFLEEHYSSSKVRWKTVVQSSFPQIDKDRLLPIDLQINSHENDFWYPCGTGNLTDTLYFSGELDKLIAQGKEILFVSNVDNLGATGDLNILNFIINEKIEYLVEVVERTANVSNTGVLATYKGKLRSVYYNCLSNESASTCRIVNTNNIWIDLKKLKVLIESNSLNLPIHSSESKITHKNEEIECLQFKTQLVDCIAFFPNSRVLKVSRDRFLPLRTCKDLFLLKSTLYDLDSNGTFNLYPLKFGLLPSIDLGDEFATYETFKIGVPDIPNILELEHLTVMGNVFFGRNITLKGTVIIICDENDVITVPDGSILENVTIWHKSQLEDMNGY | not soluble
9 | MPQPEQLPGPNADIWNWQLQGLCRGMDSSMFFHPDGERGRARTQREQRAKEMCRRCPVIEACRSHALEVGEPYGVWGGLSESERDLLLKGTMGRTRGIRRTA | not soluble
10 | DHPFTSAPTFGDFGSNQQAMPLYRVEPVYPSRALKRGVEGFVTLSFTIDTTGKAVDINVVDANPKRMFEREAMQALKKWKYQPQIVDGKAIEQPGQTVTVEFKIAK | soluble
11 | ADRNLRDLLAPWVPDAPSRALREMTLDSRVAAAGDLFVAVVGHQADGRRYIPQAIAQGVAAIIAEAKDEATDGEIREMHGVPVIYLSQLNERLSALAGRFYHEPSDNLRLVGVTGTNGKTTTTQLLAQWSQLLGEISAVMGTVGNGLLGKVIPTENTTGSAVDVQHELAGLVDQGATFCAMEVSSHGLVQHRVAALKFAASVFTNLSRDHLDYHGDMEHYEAAKWLLYSEHHCGQAIINADDEVGRRWLAKLPDAVAVSMEDHINPNCHGRWLKATEVNYHDSGATIRFSSSWGDGEIESHLMGAFNVSNLLLALATLLALGYPLADLLKTAARLQPVCGRMEVFTAPGKPTVVVDYAHTPDALEKALQAARLHCAGKLWCVFGCGGDRDKGKRPLMGAIAEEFADVAVVTDDNPRTEEPRAIINDILAGMLDAGHAKVMEGRAEAVTCAVMQAKENDVVLVAGKGHEDYQIVGNQRLDYSDRVTVARLLGVIARSHH | soluble
12 | MSLESMLSHPPIPIADMAEHTERLKANDSLKLSQEYESIDPGQQFTWEHSNLEVNKPKNRYANVIAYDHSRVILQPIEGIMGSDYINANYVDGYRRQNAYIATQGPLPETFGDFWRMVWEQRSATIVMMTRLEEKSRIKCDQYWPNRGTETYGFIQVTLLDTIELATFCVRTFSLHKNGSSEKREVRQFQFTAWPDHGVPEYPTPFLAFLRRVKTCNPPDAGPIVVHCSAGVGRTGCFIVIDAMLERIKPEKTVDVYGHVTLMRSQRNYMVQTEDQYSFIHEALLEAVGCGNTEVPARSLYAYIQKLAQVEPGEHVTGMELEFKRLANSKAHTSRFISANLPCNKFKNRLVNIMPYESTRVCLQPIRGVEGSDYINASFIDGYRQQKAYIATQGPLAETTEDFWRMLWENNSTIVVMLTKLREMGREKCHQYWPAERSARYQYFVVDPMAEYNMPQYILREFKVTDARDGQSRTVRQFQFTDWPEQGVPKSGEGFIDFIGQVHKTKEQFGQDGPISVHCSAGVGRTGVFITLSIVLERMRYEGVVDIFQTVKMLRTQRPAMVQTEDEYQFCYQAALEYLGSFDHYATEGHHHHHH | soluble
13 | MLSKRIVTALNTAVKVQNAGIATTARGMAGASGSEVSKILEERILGTETGINLEETGKVLSIGDGIARVYGLKNIQAEEMVEFDSGIKGMAMNLDVDNVGVVVFGNDKVIREGDIVKRTGAIVDVPVGDGLLGRVVDALGNPIDGKGPIANARRSRVEVKAPGIIPRLSVREPMVTGVKAVDSLVPIGRGQRELIIGDRQTGKTAIAIDTIINQKRFNDAGDDKKKLFCIYVAVGQKRSTVAQIVKRLTDAGAMDYTIVVSATASDAAPLQFLAPYSGCAMGEHFRDNGKHALIIFDDLSKQAVAYRQMSLLLRRPPGREAYPGDVFYLHSRLLERAAKMNNSLGGGSLTALPVIETQAGDVSAYIPTNVISITDGQIFLETELFYKGVRPAINVGLSVSRVGSAAQTKAMKQVAGSMKLELAQYREVAAFAQFGSDLDASTQQLLNRGVRLTELLKQGQYVPMGIEEQVGVIYAGVKGYLDKVDPSAITKFEKEFLAHLRSSQQALLKTIREEGQISPQTDAQLKDVVVNFLATFKP | not soluble
14 | YASQSAGKEYYKHIEKIIVDNDVYEKSLEGERTFDINYQGIKINADLIKDGKHELTIVNKKDGDILITFIKKG | not soluble
15 | MQKIALCITGASGVIYGIKLLQVLEELDFSVDLVISRNAKVVLKEEHSLTFEEVLKGLKNVRIHEENDFTSPLASGSRLVHYRGVYVVPCSTNTLSCIANGINKNLIHRVGEVALKERVPLVLLVREAPYNEIHLENMLKITRMGGVVVPASPAFYHKPQSIDDMINFVVGKLLDVLRIEHNLYKRWRG | soluble
16 | AIAGANEDQEMELEALRSIYEGDNSFRELSPVSFQYRIGEDGDPKAFLIEVSWTETYPQTAPVISMNAFFNNTISSAVKQSILAKLQEAVEVNLGTAMTYTLFEYAKDHKEQFMENHHPGNSATPVANIISVETPTTAPSSKKKEKKEQLSKAQKRKLADKTDHKGELPRGWNWVDVVKHLSKTGSKDDE | soluble
17 | MGSDKIHHHHHHMKNFVLDTNVLLYDPQAIFKFEENNIIIPITVIEEVDRFKKDMNETGRNARQVSRYLDDMRKIGSLSSGITLETGGMLRVEMYEEKIMKRLPPELREERGDNRILAVAVKILEENGGAPVVFVTKDTNLRIKADAIGLKAEDYESDKVDIEELYPGFTEIDVAADTVDRFHGQGWVELPGQTFFPNQCVTLRDEANPSHTALGKYRVGDGKITPLIKTGKEGVWSIFPRNREQAFAFDLLLDDSIKLVTLVGKAGTGKTLLAIAAGLHKTAEENVFNRLLVSRPVFPMGRDLGFLPGDIEEKLAPWMQPIFDNVELLLSGHEAEKRHSKGYKELMAMGIMEIEPLTYIRGRSIPNQFMIVDEAQNLTPHEIKTIITRAGEGTKIVLTGDPYQIDNPYVDASSNGLTYVVERFKEQAIAGHVTMTKGERSDLAELAANLL | not soluble
18 | SASPSLERPEKGAGKSEFRNQKPKPENQDESELLTVPDGWKEPAFSKEDNPRGLLEESSFATLFPKYRGAYLKECWPLVQKALNEHHVNATLDLIEGSMTVCTTKKTFDPYIIIRARDLIKLLARSVSFEQAVRILQDDVACDIIKIGSLVRNKERFVKRRQRLIGPKGSTLKALELLTNCYIMVQGNTVSAIGPFSGLKEVRKVVLDTMKNIHPIYNIKSLMIKRELAKDSELRSQSWERFLPQFKHKNVNKRKEPKKKTVKKEYTPFPPPQPESQIDKELASGEYFLKANQKKRQKMEAIKAKQAEAISKRQEERNKAFIPPKEKPIVKPKEASTETKIDVASIKEKVKKAKNKKLGALTAEEIALKMEADEKKKKKKK | soluble
19 | MTDFLEIRPLTKEAFTPFGDVIETTPSSMRHINGGQTERHHALSAPEAAGEGARIILNIFRGQPRVFPHKIDMMERHPLGSQSFSPLSGRPFLVVVAQDDGGRPARPQVFLARGDQGVNYRRNVWHYPLMPLQAVSDFLVADREGPGNNLEEYFFDEPFMIAEPSL | not soluble
20 | SQEVMKNLSLNFGKALDECKKEMTLTDAINEDFYNFWKEGYEIKNRETGCAIMCLSTKLNMLDPEGNLHHGNAMEFAKKHGADETMAQQLIDIVHGCEKSTPANDDKCIWTLGVATCFKAEIHKLNWAPSMDVAVGEILAEV | soluble
21 | MLIRAMQKSDYEAVYKLWCEIKGFGIRSIDDSKENIENFLDRNPNLSVVAVIDEEIVGSILCGHDGRTGGFYHVCVHKDHRKKGIAHEMAKFCLEALKAQKINKIALIAFKNNDLGNEFWKHYGFTLREDANYYDLSLNEYNQTSFNA | not soluble
